# Measured values reported in article PMC12153317 (mBio, 2025).
# B1: S8V1-157 Fab (crystallization) (Fab, V domains shown)
# VH: EVQLVQSGAEVKKPGASVKVSCKVSGYRLTALSMHWVRQAPGKGLEWMGGFDPEEDETIYAQNFQGRVTLTEDTSTDTVYMELSSLRSEDTGVYYCATLMGANPFDYWGQGTLIIVSG
# VL: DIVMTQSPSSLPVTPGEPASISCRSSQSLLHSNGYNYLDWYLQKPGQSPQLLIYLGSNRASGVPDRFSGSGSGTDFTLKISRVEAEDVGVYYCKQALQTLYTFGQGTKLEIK
# notes: source: 293F, transient transfection, purified (TALON resin, Superdex 200)
# Biological target: HA head of A/American black duck/New Brunswick/00464/2010(H4N6) (Influenza A virus A/American black …, strain)
# Experiment: crystal structure
# Settings: both partners purified
binder,measurement,value
B1,binding result,binds
